Publication PMC2813981

Assays:
[1] = target: fibrinogen fragment D (human); test: SPR
[2] = target: fibrin matrix (thrombin- and factor XIIIa-treated human fibrinogen) (human) (UniProt P02671); test: confocal microscopy of perfused fibrin matrices
UniProt P02671, sequence (P02671 36-866, chain 1 of 3): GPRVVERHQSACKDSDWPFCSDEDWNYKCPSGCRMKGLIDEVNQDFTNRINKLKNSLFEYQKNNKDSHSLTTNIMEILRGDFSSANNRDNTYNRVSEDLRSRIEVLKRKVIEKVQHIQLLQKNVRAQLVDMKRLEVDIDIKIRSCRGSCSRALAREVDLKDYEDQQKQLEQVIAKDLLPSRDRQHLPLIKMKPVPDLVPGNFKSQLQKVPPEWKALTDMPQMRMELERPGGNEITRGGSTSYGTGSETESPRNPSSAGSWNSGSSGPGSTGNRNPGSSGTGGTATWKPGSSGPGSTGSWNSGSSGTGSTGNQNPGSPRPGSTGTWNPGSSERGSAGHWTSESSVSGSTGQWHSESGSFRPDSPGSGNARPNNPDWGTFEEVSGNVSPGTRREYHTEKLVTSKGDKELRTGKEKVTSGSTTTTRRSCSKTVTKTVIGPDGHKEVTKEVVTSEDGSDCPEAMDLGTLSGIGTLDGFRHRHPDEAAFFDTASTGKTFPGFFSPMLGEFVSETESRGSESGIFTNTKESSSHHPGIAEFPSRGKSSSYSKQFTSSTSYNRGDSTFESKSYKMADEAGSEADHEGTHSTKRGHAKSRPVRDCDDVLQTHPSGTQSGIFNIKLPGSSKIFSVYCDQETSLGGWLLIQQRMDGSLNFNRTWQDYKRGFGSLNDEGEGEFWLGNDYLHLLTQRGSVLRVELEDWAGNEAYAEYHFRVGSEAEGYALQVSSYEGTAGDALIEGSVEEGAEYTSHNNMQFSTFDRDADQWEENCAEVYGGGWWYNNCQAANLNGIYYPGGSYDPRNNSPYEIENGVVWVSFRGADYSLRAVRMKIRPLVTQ
UniProt P02671, sequence (P02675 45-491, chain 2 of 3, further chain): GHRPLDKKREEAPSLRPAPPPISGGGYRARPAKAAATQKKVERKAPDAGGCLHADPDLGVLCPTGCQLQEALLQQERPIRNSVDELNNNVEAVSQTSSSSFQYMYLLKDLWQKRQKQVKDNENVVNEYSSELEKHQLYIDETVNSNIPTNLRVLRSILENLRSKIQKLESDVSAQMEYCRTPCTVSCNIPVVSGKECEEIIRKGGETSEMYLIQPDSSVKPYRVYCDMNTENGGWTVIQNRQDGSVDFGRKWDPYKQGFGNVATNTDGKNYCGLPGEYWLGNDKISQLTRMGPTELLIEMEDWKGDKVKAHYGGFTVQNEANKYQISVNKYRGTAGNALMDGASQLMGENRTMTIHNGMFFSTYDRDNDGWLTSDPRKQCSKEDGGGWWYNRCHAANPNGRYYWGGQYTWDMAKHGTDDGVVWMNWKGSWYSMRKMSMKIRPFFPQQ
UniProt P02671, sequence (P02679 27-453, chain 3 of 3, further chain): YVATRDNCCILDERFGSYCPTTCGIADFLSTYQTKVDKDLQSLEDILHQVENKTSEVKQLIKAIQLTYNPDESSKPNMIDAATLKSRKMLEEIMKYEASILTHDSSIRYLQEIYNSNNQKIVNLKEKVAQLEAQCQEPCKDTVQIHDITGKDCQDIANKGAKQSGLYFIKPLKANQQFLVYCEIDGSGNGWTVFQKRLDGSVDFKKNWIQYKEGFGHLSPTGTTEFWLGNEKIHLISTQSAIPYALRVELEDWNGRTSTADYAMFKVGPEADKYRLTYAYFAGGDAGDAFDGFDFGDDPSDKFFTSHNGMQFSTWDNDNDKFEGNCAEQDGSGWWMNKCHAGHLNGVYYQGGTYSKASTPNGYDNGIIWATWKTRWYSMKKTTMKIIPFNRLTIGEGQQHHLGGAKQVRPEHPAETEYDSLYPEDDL

## GPRV-FnIII9-10 (designed binder)
[1]
  Kd: 125 µM

## GPRP-FnIII9-10-AF633 (designed binder)
[2]
  percent of fibrin matrix still retaining the conjugate after perfusion: 12.8%

## GPRP-FnIII9-10 (designed binder)
[1]
  KD with a 10-molar excess of soluble GPRP peptide: 43 µM
  Kd: 3 µM
